Source: US20100210517A1 (RAPTOR PHARMACEUTICAL, published 2010)
Substitutions are numbered along the chain they refer to.

Experiments:
LRP2 CR34-36 = biological target: T1, LRP2 CR34-36 (human, UniProt P98164 3841-3963); test: solid-phase assay on coated CR protein, each ligand at 80 nM, blank-corrected absorbance
T1 construct: domain: CR34-36; not shown: N-terminal hexahistidine and S-peptide tags of pET30(+)a
Procedure: (§1) Samples were tested twice, in duplicate, and values combined. Means and standard deviations were then calculated. Blank values obtained from wells incubated in the absence of ligand were used to correct absorbance data.
(§2) Solid phase binding assays-Purified, refolded CR protein (1 μg) was bound to Nunc Maxisorp™ 96-well plates in TBS pH 8 supplemented with 5 mM CaCl₂ (TBSC) overnight at 4° C. Wells were washed with TBSC and then blocked with TBSC containing 2% bovine serum albumin (BSA). […] Control wells contained no added ligand. As an additional control, to determine whether the absence of calcium affected binding, 10 mM EGTA was included in the incubation medium for some samples. […] Excess primary antibody was removed and wells washed before incubation with the secondary antibody, HRP-conjugated goat anti rabbit IgG (Bio-Rad). After washing, TMB substrate solutions (Bio-Rad) were added to detect HRP. Color development was stopped with 1N HCl. Absorption at 450 nm was measured with a microplate spectrophotometer (Molecular Devices). Data were plotted and Kd values derived by non-linear regression with the assumption of single-site binding (GraphPad Prism).

LRP2 CR2728 = biological target: T2, LRP2 CR2728 (human, UniProt P98164 3552-3631); test: as above
T2 construct: domain: CR2728; Its cloning is not described in the methods; not shown: N-terminal hexahistidine and S-peptide tags of pET30(+)a
T2 sequence (looked up): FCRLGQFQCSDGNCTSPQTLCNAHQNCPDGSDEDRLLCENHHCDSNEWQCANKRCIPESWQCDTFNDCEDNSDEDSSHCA
Procedure: as §1, §2

LRP2 CR3536 = biological target: T3, LRP2 CR3536 (human, UniProt P98164 3882-3963); test: as above
T3 construct: domain: CR3536; not shown: N-terminal hexahistidine and S-peptide tags of pET30(+)a
Procedure: as §1, §2

LRP1 CR3-5 = biological target: T4, LRP1 CR3-5 (human); test: solid-phase assay; OD at the highest ligand concentration as percent of the highest OD of all ligands
T4 construct: range 852-973; also called L1 CR3-5
Procedure: as §2

LRP2 CR89 [1] = biological target: T5, LRP2 CR89 (human, UniProt P98164 1025-1102); test: as above
T5 construct: domain: CR89; also called YVWR; L2 CR89; not shown: N-terminal hexahistidine and S-peptide tags of pET30(+)a
Procedure: as §2

[2] = biological target: T6, LRP2 CR89 Y1042W V1047D R1088D (human, UniProt P98164 1022-1105); test: as above
T6 construct: also called WDWD
T6 chain: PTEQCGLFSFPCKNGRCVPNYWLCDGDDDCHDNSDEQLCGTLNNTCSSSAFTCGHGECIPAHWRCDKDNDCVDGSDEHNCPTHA
Procedure: as §2
(§3) To test this idea, mutant LRP2 CR89 were prepared in which the native, non-canonical residues at these positions were sequentially substituted with the non-native, canonical residues. As defined above, the A, C, A′, C′ string for LRP2 CR89 is YVWR. Mutants included LRP2 CR89 Y1042W (WVWR), LRP2 CR89 V1047D (YDWR), LRP2 CR89 R1088D (YVWD), LRP2 CR89 V1047D R1088D (YDWD), LRP2 CR89 Y1042W V1047D R1088D (WDWD), LRP2 CR89 Y1042W V1047D (WDWR), LRP2 CR89 Y1042W R1088D (WVWD).

LRP2 CR89 R1088D [3] = biological target: T7, LRP2 CR89 R1088D (human, UniProt P98164 1022-1105); test: as above
T7 construct: also called YVWD
Procedure: as §2, §3

LRP2 CR89 V1047D = biological target: T8, LRP2 CR89 V1047D (human, UniProt P98164 1022-1105); test: as above
T8 construct: also called YDWR
T8 sequence: T6 chain with W22Y, D68R
Procedure: as §2, §3

LRP2 CR89 Y1042W R1088D = biological target: T9, LRP2 CR89 Y1042W R1088D (human, UniProt P98164 1022-1105); test: as above
T9 construct: also called WVWD
T9 chain: T6 chain with D27V
Procedure: as §2, §3

LRP2 CR89 [4] = biological target: T5, LRP2 CR89; test: as above; remark: listed apart in the source
Procedure: as §2, §3

LRP2 CR89 Y1042W V1047D = biological target: T10, LRP2 CR89 Y1042W V1047D (human, UniProt P98164 1022-1105); test: as above
T10 construct: also called WDWR
T10 chain: T6 chain with D68R
Procedure: as §2, §3

LRP2 CR89 V1047D R1088D = biological target: T11, LRP2 CR89 V1047D R1088D (human, UniProt P98164 1022-1105); test: as above
T11 construct: also called YDWD
T11 sequence: T6 chain with W22Y
Procedure: as §2, §3

LRP2 CR89 [5] = biological target: T5, LRP2 CR89; test: apparent Kd of the variant for the CR pair used in selection; no unit printed in Table 4, nM per Table 2 and paragraph 292
LRP2 CR89 R1088D [6] = biological target: T7, LRP2 CR89 R1088D; test: solid-phase assay on coated CR protein, single-site non-linear fit
Procedure: as §2

LRP2 CR89 [7] = biological target: T5, LRP2 CR89; test: as above
Procedure: as §2

T5 sequence (P98164 1025-1102): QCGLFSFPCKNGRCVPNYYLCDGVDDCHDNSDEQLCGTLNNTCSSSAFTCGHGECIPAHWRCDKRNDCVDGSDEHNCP
T4 sequence (Q07954 852-973): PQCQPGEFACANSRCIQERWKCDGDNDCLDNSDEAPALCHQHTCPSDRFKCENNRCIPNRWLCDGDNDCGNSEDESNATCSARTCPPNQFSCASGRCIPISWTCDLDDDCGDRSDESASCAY
T3 sequence (P98164 3882-3963): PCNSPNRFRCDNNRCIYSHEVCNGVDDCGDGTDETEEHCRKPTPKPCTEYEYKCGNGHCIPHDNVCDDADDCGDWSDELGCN
T1 sequence (P98164 3841-3963): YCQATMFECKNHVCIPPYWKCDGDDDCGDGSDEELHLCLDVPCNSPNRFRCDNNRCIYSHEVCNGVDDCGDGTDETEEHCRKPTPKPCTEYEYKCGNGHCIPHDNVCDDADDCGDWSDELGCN

B1: MegaRAP1 d3 (ligand)
chain: LDRLRRVSHQGYTTEAKFEEPRVIDLWDLAQSANLTDKELEAFREELKYFKAKIEAHNHYQKQLEIAHEELRHAESVGDGERVSRSREKHALLEGRTKELGYTVKKHLQDLSGRISRAR
notes: V175L lies outside the d3 construct; also called RAPv2A d3; RAP v2 d3; not shown: N-terminal hexahistidine and S-peptide tags of pET30(+)a
binding result (LRP2 CR34-36): no binding (tested: 80 nM) | binding result (LRP2 CR2728): no binding (tested: 80 nM) | binding result (LRP2 CR3536): no binding (tested: 80 nM) | % max (LRP1 CR3-5): 4% | % max (LRP2 CR89 [1]): 88% | % max bind [2]: 1% | % max bind (LRP2 CR89 R1088D [3]): 55% | % max bind (LRP2 CR89 V1047D): 11% | % max bind (LRP2 CR89 Y1042W R1088D): 4% | % max bind (LRP2 CR89 [4]): 100% | % max bind (LRP2 CR89 Y1042W V1047D): 3% | % max bind (LRP2 CR89 V1047D R1088D): 3% | Kd (LRP2 CR89 [5]): 38 nM | Kd (LRP2 CR89 R1088D [6]): 78 nM | Kd (LRP2 CR89 [7]): 33 nM
